The numbers were not newly measured in PMC7696831, which cites them from elsewhere.

The data set deals with SARS-CoV spike protein (Severe acute respiratory syndrome coronavirus) (UniProt P59594).

Sequence of angiotensin-converting enzyme 2 (Q9BYF1 18-708): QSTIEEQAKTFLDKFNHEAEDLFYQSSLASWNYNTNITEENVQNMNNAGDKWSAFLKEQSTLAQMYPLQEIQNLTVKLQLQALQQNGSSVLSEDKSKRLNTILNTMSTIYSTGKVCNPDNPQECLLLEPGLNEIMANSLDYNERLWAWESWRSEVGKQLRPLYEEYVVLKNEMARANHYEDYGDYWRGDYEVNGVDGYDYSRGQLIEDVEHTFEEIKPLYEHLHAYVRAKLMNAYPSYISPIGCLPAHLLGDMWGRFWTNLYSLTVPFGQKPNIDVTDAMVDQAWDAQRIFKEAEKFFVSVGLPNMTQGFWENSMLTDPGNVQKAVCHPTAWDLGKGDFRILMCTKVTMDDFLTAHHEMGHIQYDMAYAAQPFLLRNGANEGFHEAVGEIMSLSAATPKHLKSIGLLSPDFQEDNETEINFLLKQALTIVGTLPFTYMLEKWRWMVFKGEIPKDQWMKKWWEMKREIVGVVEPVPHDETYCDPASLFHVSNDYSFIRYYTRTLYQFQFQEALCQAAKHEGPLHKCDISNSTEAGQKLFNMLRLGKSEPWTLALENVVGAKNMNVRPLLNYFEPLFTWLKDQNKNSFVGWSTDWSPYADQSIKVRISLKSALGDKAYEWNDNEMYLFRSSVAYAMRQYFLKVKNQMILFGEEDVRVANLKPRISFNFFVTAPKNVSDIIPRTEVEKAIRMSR

A word on the Kd: it is the constant that tells how readily two partners part at equilibrium. Turning to “angiotensin-converting enzyme 2 (from UniProt Q9BYF1)”, the Kd was 0.326 µM.
